What was measured:
[1] = biological target: T1, Lsm2-8 complex (Saccharomyces cerevisiae, UniProt P38203;P57743;P40070;P40089;Q06406;P53905;P47093 …); test: fluorescence polarization; Hill 1.0; EMSA: 5 nM Cy3-U6, 100 mM KCl, 20% sucrose, 20 mM bis-tris/10 mM HCl, 1 mM EDTA, 1 mM TCEP, 0.01% Triton X-100, 0.1 mg/mL tRNA, 0.01 mg/mL heparin, 0.1 mg/mL BSA, room temp 20 min (gel 4 C); FP: 0.25-1 nM FAM-RNA, 100 mM NaCl, 20 mM bis-tris/10 mM HCl, 1 mM TCEP, 5% glycerol, 1 mM EDTA, yeast tRNA, BSA; settings: protein: recombinant; tags: His on Lsm8 and GST on Lsm6, removed by TEV; copies: 1;1;1;1;1;1;1; label: 5' 6-FAM
T1 sequence 1: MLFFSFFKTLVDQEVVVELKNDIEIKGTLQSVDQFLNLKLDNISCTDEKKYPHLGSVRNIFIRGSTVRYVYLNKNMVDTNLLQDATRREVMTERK
T1 sequence 2: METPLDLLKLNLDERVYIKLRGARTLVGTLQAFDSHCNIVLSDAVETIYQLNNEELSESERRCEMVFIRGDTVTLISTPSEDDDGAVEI
T1 sequence 3: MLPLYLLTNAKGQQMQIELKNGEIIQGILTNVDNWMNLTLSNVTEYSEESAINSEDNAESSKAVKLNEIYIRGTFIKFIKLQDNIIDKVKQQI
T1 sequence 4: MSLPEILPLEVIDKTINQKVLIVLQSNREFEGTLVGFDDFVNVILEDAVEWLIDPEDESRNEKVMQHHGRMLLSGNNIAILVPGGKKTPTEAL
T1 sequence 5: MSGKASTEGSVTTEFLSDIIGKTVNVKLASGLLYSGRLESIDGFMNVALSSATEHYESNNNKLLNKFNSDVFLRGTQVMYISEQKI
T1 sequence 6: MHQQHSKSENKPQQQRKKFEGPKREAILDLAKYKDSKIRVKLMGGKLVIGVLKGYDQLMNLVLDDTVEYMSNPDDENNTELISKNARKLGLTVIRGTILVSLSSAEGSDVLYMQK
T1 sequence 7: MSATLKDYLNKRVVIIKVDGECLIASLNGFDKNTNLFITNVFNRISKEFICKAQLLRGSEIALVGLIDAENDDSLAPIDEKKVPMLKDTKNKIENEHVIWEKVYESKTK

[2] = biological target: T2, Lhp1 (yeast La protein) (Saccharomyces cerevisiae, UniProt P33399 1-275); test: fluorescence polarization; Hill 1.11; EMSA: 5 nM Cy3-U6, 100 mM KCl, 20% sucrose, 20 mM bis-tris/10 mM HCl, 1 mM EDTA, 1 mM TCEP, 0.01% Triton X-100, 0.1 mg/mL tRNA, 0.01 mg/mL heparin, 0.1 mg/mL BSA, room temp 20 min (gel 4 C); FP: 0.25-1 nM FAM-RNA, 100 mM NaCl, 20 mM bis-tris/10 mM HCl, 1 mM TCEP, 5% glycerol, 1 mM EDTA, yeast tRNA, BSA; settings: protein: recombinant; tags: N-terminal His8-TEV; label: 5' 6-FAM
T2 sequence: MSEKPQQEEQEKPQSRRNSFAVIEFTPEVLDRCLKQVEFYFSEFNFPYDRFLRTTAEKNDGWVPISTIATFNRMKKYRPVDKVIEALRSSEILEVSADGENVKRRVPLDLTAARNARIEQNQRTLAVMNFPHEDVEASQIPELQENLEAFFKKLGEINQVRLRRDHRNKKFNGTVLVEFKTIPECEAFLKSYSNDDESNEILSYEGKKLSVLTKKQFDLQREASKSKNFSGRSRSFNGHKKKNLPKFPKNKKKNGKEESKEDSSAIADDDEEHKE

[3] = biological target: T2, Lhp1 (yeast La protein); test: fluorescence polarization; Hill 1.27; EMSA: 5 nM Cy3-U6, 100 mM KCl, 20% sucrose, 20 mM bis-tris/10 mM HCl, 1 mM EDTA, 1 mM TCEP, 0.01% Triton X-100, 0.1 mg/mL tRNA, 0.01 mg/mL heparin, 0.1 mg/mL BSA, room temp 20 min (gel 4 C); FP: 0.25-1 nM FAM-RNA, 100 mM NaCl, 20 mM bis-tris/10 mM HCl, 1 mM TCEP, 5% glycerol, 1 mM EDTA, yeast tRNA, BSA; settings: protein: recombinant; tags: N-terminal His8-TEV; label: 5' 6-FAM
[4] = biological target: T1, Lsm2-8 complex; test: fluorescence polarization; Hill 1.6; EMSA: 5 nM Cy3-U6, 100 mM KCl, 20% sucrose, 20 mM bis-tris/10 mM HCl, 1 mM EDTA, 1 mM TCEP, 0.01% Triton X-100, 0.1 mg/mL tRNA, 0.01 mg/mL heparin, 0.1 mg/mL BSA, room temp 20 min (gel 4 C); FP: 0.25-1 nM FAM-RNA, 100 mM NaCl, 20 mM bis-tris/10 mM HCl, 1 mM TCEP, 5% glycerol, 1 mM EDTA, yeast tRNA, BSA; settings: protein: recombinant; tags: His on Lsm8 and GST on Lsm6, removed by TEV; copies: 1;1;1;1;1;1;1; label: 5' 6-FAM
[5] = biological target: T1, Lsm2-8 complex; test: fluorescence polarization; Hill 1.3; EMSA: 5 nM Cy3-U6, 100 mM KCl, 20% sucrose, 20 mM bis-tris/10 mM HCl, 1 mM EDTA, 1 mM TCEP, 0.01% Triton X-100, 0.1 mg/mL tRNA, 0.01 mg/mL heparin, 0.1 mg/mL BSA, room temp 20 min (gel 4 C); FP: 0.25-1 nM FAM-RNA, 100 mM NaCl, 20 mM bis-tris/10 mM HCl, 1 mM TCEP, 5% glycerol, 1 mM EDTA, yeast tRNA, BSA; settings: protein: recombinant; tags: His on Lsm8 and GST on Lsm6, removed by TEV; copies: 1;1;1;1;1;1;1; label: 5' 6-FAM

AGAGAUUUAUUUCGUUUUU (ssRNA, 3' phosphate) [U6 95-112+1U 3'P]
Kd [1]: 0.003 ± 0.001 µM

AGAGAUUUAUUUCGUUUUU (ssRNA, 2',3'-cis-diol end) [U6 95-112+1U 3'OH]
Kd [2]: 0.029 ± 0.001 µM | Kd [1]: 0.017 ± 0.001 µM

AGAGAUUUAUUUCGUUUU (ssRNA, 2',3'-cis-diol end) [U6 95-112 3'OH]
Kd [3]: 0.043 ± 0.001 µM | Kd [4]: 0.085 ± 0.001 µM

AGAGAUUUAUUUCGUUUU (ssRNA, 3' phosphate) [U6 95-112 3'P]
Kd [5]: 0.01 ± 0.001 µM

Reference: paper PMC5591277, “Usb1 controls U6 snRNP assembly through evolutionarily divergent cyclic phosphodiesterase activities”
